# Measurements taken from patent US20150274826A1 (published 2015).
# T1: rat CD47 (rat, UniProt P97829 19-303)
# T1 chain: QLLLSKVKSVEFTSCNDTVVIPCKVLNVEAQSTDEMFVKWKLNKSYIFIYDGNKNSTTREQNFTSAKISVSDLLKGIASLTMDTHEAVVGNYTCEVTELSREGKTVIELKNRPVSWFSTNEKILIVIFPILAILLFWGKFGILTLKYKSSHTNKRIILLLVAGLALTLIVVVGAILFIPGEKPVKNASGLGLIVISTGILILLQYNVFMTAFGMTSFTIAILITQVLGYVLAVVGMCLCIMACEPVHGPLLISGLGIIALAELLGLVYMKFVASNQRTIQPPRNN
# T2: mouse CD47 (mouse, UniProt Q61735 19-303)
# T2 chain: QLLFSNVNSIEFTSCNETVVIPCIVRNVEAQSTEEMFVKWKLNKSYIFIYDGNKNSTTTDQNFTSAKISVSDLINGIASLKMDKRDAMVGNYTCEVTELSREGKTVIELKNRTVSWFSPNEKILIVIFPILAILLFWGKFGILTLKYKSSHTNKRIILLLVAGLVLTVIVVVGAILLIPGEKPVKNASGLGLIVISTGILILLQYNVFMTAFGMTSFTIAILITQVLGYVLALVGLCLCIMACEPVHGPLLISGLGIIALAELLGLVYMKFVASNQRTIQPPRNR
# T3: pig CD47 (pig, UniProt Q9GKE8 19-303)
# T3 chain: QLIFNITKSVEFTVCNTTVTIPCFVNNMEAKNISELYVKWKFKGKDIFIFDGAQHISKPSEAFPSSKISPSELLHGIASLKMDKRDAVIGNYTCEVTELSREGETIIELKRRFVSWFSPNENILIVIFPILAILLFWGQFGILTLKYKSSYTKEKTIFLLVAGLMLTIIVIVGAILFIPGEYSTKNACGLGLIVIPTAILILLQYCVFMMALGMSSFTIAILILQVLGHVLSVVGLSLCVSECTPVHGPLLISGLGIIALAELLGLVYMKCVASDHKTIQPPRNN
# B1: Clone 1.1 (hum01 IgG1 N297Q) (antibody)
# heavy: QVQLQESGPGLVKPSQTLSLTCTVSGYTFTNYYVFWVRQARGQRLEWIGDINPVNGDTNFNEKFKNRVTISADKSISTAYLQWSSLKASDTAMYYCARGGYTMDYWGQGTLVTVSSASTKGPSVFPLAPSSKSTSGGTAALGCLVKDYFPEPVTVSWNSGALTSGVHTFPAVLQSSGLYSLSSVVTVPSSSLGTQTYICNVNHKPSNTKVDKKVEPKSCDKTHTCPPCPAPELLGGPSVFLFPPKPKDTLMISRTPEVTCVVVDVSHEDPEVKFNWYVDGVEVHNAKTKPREEQYQSTYRVVSVLTVLHQDWLNGKEYKCKVSNKALPAPIEKTISKAKGQPREPQVYTLPPSR
# light: DIVMTQTPLSLPVTPGEPASISCRSSQSLVHSNGNTYLHWYQQKPGKAPKLLIYKVSYRFSGVPDRFSGSGSGTDFTLKISRVEAEDVGVYYCSQNTHVPRTFGQGTKVEIKRTVAAPSVFIFPPSDEQLKSGTASVVCLLNNFYPREAKVQWKVDNALQSGNSQESVTEQDSKDSTYSLSSTLTLSKADYEKHKVYACEVTHQGLSSPVTKSFNRGEC
# B2: Clone 13 (pVxK7b-037-hum13-LC / pVxK7b-037-hum13-HC) (antibody)
# heavy: not shown
# light: B1 light
# B3: Clone 1 (pVxK7b-037-hum01-LC / pVxK7b-037-hum01-HC) (antibody)
# heavy: not shown
# light: B1 light
# B4: Clone 13.1 (hum13 IgG1 N297Q) (antibody)
# heavy: EVQLVQSGAEVKKPGESLRISCKGSGYTFTNYYVFWIRQSPSRGLEWLGDINPVNGDTNFNEKFKNRVTITADKSTSTAYMELSSLRSEDTAVYYCARGGYTMDYWGQGTLVTVSSASTKGPSVFPLAPSSKSTSGGTAALGCLVKDYFPEPVTVSWNSGALTSGVHTFPAVLQSSGLYSLSSVVTVPSSSLGTQTYICNVNHKPSNTKVDKKVEPKSCDKTHTCPPCPAPELLGGPSVFLFPPKPKDTLMISRTPEVTCVVVDVSHEDPEVKFNWYVDGVEVHNAKTKPREEQYQSTYRVVSVLTVLHQDWLNGKEYKCKVSNKALPAPIEKTISKAKGQPREPQVYTLPPSR
# light: B1 light
# Molecular target: T1, rat CD47
# Experiment: FACS binding; rat RBCs
row,EC50,Binder
1,0.258 µg/mL,B1
2,0.0461 µg/mL,B2
3,0.0479 µg/mL,B3
4,0.0835 µg/mL,B4

# Molecular target: T2, mouse CD47
# Experiment: FACS binding; mouse RBCs
row,EC50,Binder
1,0.265 µg/mL,B1
2,0.0418 µg/mL,B2
3,0.0657 µg/mL,B3
4,0.0673 µg/mL,B4

# Molecular target: T3, pig CD47
# Experiment: FACS binding; porcine RBCs
row,EC50,Binder
1,0.0309 µg/mL,B1
2,0.0152 µg/mL,B2
3,0.014 µg/mL,B3
4,0.031 µg/mL,B4

# Molecular target: human CD47 (human, UniProt Q08722 19-323)
# Sequence (Q08722 19-323): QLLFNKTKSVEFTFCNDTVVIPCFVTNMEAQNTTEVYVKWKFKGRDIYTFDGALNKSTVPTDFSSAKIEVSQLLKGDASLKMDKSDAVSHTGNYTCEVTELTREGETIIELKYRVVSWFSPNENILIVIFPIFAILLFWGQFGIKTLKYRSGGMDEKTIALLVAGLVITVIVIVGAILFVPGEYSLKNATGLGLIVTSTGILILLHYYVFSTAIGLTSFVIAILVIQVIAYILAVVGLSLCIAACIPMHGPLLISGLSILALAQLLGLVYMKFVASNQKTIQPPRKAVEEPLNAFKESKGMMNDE
# Experiment: FACS binding; human RBCs
row,EC50,Binder
1,0.216 µg/mL,B1
2,0.12 µg/mL,B2
3,0.184 µg/mL,B3
4,0.163 µg/mL,B4
